Test results as given in the supplement of paper PMC10567573.
± gives the standard deviation.

Test: protein stability index of a GFP-peptide fusion (GPS, HEK-293T) (PSI 1-6); higher = more stable
Details: c terminus: a fixed tail appended
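Further: 24-mer peptide tiles fused after GFP, lentivirally expressed, FACS-sorted into six equal bins by GFP/DsRed ratio, decoded by Illumina sequencing, PSI is the read-weighted mean bin number.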

Row | Sequence | protein stability index (treatment: DMSO) | protein stability index (treatment: MLN4924 1 uM, 8 h)
1 | LGRTGLYPSYKVREKIETVKYPTY [FUT8] | 2.42 ± 0.12 | 2.51 ± 0.14
2 | AAGGVPGGGSNNGKTPVCHQCHKV [PDLIM7] | 3.32 ± 0.62 | 3.85 ± 0.56
3 | NSQNEVNGWTCLHWACKRNHGQVV [ANKRD40] | 2.57 ± 0.24 | 2.65 ± 0.24
4 | LMSESEWRNLGVQQSQGWVHYMIH [CKS1B] | 2.42 ± 0.35 | 2.05 ± 0.31
5 | EKQIRSFLIEGPLINTIRVVCASY [PLEKHN1] | 3.13 ± 0.74 | 2.79 ± 0.48
6 | HTPQSSVKTSVPSSKSSGDLVDLF [CLINT1] | 4.03 ± 0.16 | 4.26 ± 0.053
7 | TTSTLKAWLNEHRKNPYPTKGEKI [IRX6] | 3.13 ± 0.44 | 3.37 ± 0.16
8 | QARLLNPSATRAKPGPQDTVERPF [NOP53] | 4.78 ± 0.24 | 4.85 ± 0.14
9 | DYSREVNTTEELEALITDPDEMRM [FEM1A] | 5.11 ± 0.21 | 5.17 ± 0.18
10 | RSGGPPPKKSAPSAVARSNSWMGS [RBMY1A1] | 3.7 ± 0.27 | 3.64 ± 0.22
11 | SWNNNDRSLNVFVKEDDKLIFHRH [SPSB1] | 3.17 ± 0.13 | 3.29 ± 0.21
12 | LIDQRYFQVLCSINSIIHNPRAPV [CEP70] | – | 2.07 ± 0.12
13 | ELRNMCDEHIASEEPAEKEDLLQQ [CLCN6] | 5.38 ± 0.18 | 5.45 ± 0.12
14 | GIQPGQEPPVTMIFMGYQNVEDEA [PALM] | 3.94 ± 0.35 | 4.02 ± 0.24
15 | NTCSVITTLKGHEGSVACLWWDPI [WDFY1] | 2.09 ± 0.39 | 2.34 ± 0.46
16 | QGFRTVLELVINYQQLCIYWTKYY [OAS1] | 2.96 ± 0.33 | 2.79 ± 0.51
17 | KETDPLTFNFISSLKAICTEIANC [PLD5] | 2 ± 0.27 | 2.05 ± 0.1
18 | ALIETSYVKVLHHMVKISGGPRIS [MAGEA6] | 2.93 ± 0.41 | 2.88 ± 0.51
19 | YRVLLGHTLILMFIWFVCSLVYYG [SLC22A15] | 2.32 ± 0.53 | 2.33 ± 0.57
20 | SVPASDPRSCSSGPAGPYLLSKKG [PLEKHN1] | 4.65 ± 0.15 | 4.69 ± 0.089
21 | RPLLQYVQDMGQEDMLLPLAWRIV [CCNC] | 2.44 ± 0.17 | 2.24 ± 0.31
22 | NFCHIHNCIHRDIKPENILITKQG [CDKL4] | 2.53 ± 0.067 | 2.74 ± 0.43
23 | QRCQKCSWSQYEMPEFSSDSTMRI [RTP4] | 2.36 ± 0.18 | 2.42 ± 0.16

Row | Sequence | protein stability index (treatment: DMSO) | protein stability index (treatment: MLN4924 1 uM, 8 h)
24 | DIEMSMRGDIFERIVHLQETCDLG [NLN] | 3.26 ± 0.47 | 3.22 ± 0.36
25 | KHSNKKVMRTKSSEKAANDDHSVR [CPXM2] | 5.13 ± 0.29 | 5.2 ± 0.22
26 | SDDHIRVIVQLHKLRHLDISRDRL [ZER1] | 2.38 ± 0.18 | 2.53 ± 0.11
27 | AEAAPELDLFAMKPPETSVPVVTP [SNAP91] | 4.89 ± 0.15 | 4.98 ± 0.1
28 | EEDGGADEHEHPLTSELDPEKEQE [MIA2] | 5.4 ± 0.57 | 5.5 ± 0.37
29 | AEQEPTRKLFEVESVTHHDYRMEL [SPAG8] | 4.16 ± 0.16 | 4.33 ± 0.18
30 | KSSGKHYGQFTCEGCKSFFKRSVR [NR2F2] | 2.37 ± 0.18 | 2.68 ± 0.41
31 | LSNLQKESRACLERIQELEDLLAK [LMNB1] | 3.52 ± 0.15 | 3.67 ± 0.23
32 | VHRGDGANPFQAYLDVDLTLTREQ [RTN2] | 3.88 ± 0.088 | 3.82 ± 0.25
33 | SRDSAAITHSTYSLPASSYSQDPV [NOL4L] | 4.54 ± 0.12 | 4.62 ± 0.15
34 | VSGDTSKLMKILQPQDVDLALDSG [RIPK4] | 4.57 ± 0.16 | 4.68 ± 0.32
35 | GMFTFLSSVTAAVSGLLVGYELGI [SLC2A12] | 2.891 ± 0.011 | 2.75 ± 0.86
36 | KWTACSRSCGGGVTSQERHCLQQR [ADAMTSL2] | 2.75 ± 0.51 | 3.37 ± 0.59
37 | AGYEVDKIAQNLDFVNLMAYDFHG [CHIT1] | 2.28 ± 0.41 | 2.36 ± 0.19
38 | RKPVEAESVEGVVRILLEHYYKEN [INTS4] | 2.35 ± 0.27 | 2.41 ± 0.5
39 | MFTSELSEKGKPYVDIQGLTASTM [KLHL12] | 2.54 ± 0.31 | 2.88 ± 0.46
40 | DAQGSEMVTCKSEFYHDEFKRWIY [GAN] | 2.61 ± 0.46 | 2.52 ± 0.13
41 | GNTIALFFRSLLPNYTMEGERPEE [TCF25] | 2.17 ± 0.62 | 2.72 ± 0.21
42 | ERNFWDPSPQLDTQQEIKLCQKSN [WDR41] | 3.92 ± 0.34 | 3.94 ± 0.37
43 | IKLLQSSGADFHKKDKCGRTPLHY [ANKRD44] | 2.42 ± 0.2 | 2.6 ± 0.38
44 | VAAACACGFTVAQIITSLVFHLPF [OR10K2] | 3.43 ± 0.54 | 3.42 ± 0.68
45 | THGALCLELLVNNGADVNIQSKDG [ANKRD44] | 3.99 ± 0.22 | 4.01 ± 0.37
46 | DLSVPLMDVGETAMVTADSKYCYG [FKBP8] | 4.1 ± 0.31 | 4.44 ± 0.22

Row | Sequence | protein stability index (treatment: DMSO) | protein stability index (treatment: MLN4924 1 uM, 8 h)
47 | EAFKKHSLDLLSKERELNGKLRHL [CCDC89] | 3.34 ± 0.25 | 3.38 ± 0.14
48 | LEAGASAASTAAALENLQVEASCS [TRIM39] | 5.36 ± 0.2 | 5.3 ± 0.37
49 | VCSSNKPAIVEAGGMQALGLHLTD [CTNNB1] | 4.04 ± 0.087 | 3.89 ± 0.16
50 | LEKSNKNFSKKIQQIHVVSQFKIL [VPS39] | 2.17 ± 0.24 | 2.07 ± 0.26
51 | SVAFAVAWFLPMPQKSLFFHHIPS [SLC19A2] | 3.65 ± 0.2 | 3.31 ± 0.23
52 | LPGPTRPVLGRRAVGGRLRLVPGG [HAGHL] | 3.53 ± 0.41 | 3.67 ± 0.23
53 | YHIYVALEEEIERNKESPVFAPVY [HMOX1] | 2.32 ± 0.28 | 3.03 ± 0.51
54 | IDLLTFLTGQKAVKVHGLLKTFVK [GFOD1] | 2.93 ± 0.62 | 2.67 ± 0.31
55 | RSSSESKLPSSGSGKRLSGVSSVD [RIPK4] | 5.03 ± 0.19 | 5.07 ± 0.26
56 | PMVNHAEASRLNIERMKQIYQQLS [CRY1] | 2.81 ± 0.34 | 2.77 ± 0.25
57 | LCKIGSERSLVLDRLASNVAKRKS [IKZF1] | 3.83 ± 0.24 | 3.93 ± 0.28
58 | HMILENCSISKMEEEAGQTSIEPS [ZER1] | 5.14 ± 0.13 | 5.2 ± 0.18
59 | ADGDGGGGQCCRRQDSPSPDFYKQ [PCDHGC5] | 4.67 ± 0.25 | 4.44 ± 0.4
60 | SLSSTATVLLVLEDEDPEEMPKSS [PCDHGC5] | 4.24 ± 0.12 | 4.08 ± 0.32
61 | AAAYGHALEQYEGESWRESARYLE [P3H4] | 4.19 ± 0.23 | 4.21 ± 0.21
62 | GSKFRYSGRTQAQTRRASALIDRP [EPB41L3] | 3.35 ± 0.41 | 3.44 ± 0.27
63 | LDEIPDDEDLDLIPPKSVNPTCMC [FAM219A] | 5.07 ± 0.16 | 5.16 ± 0.31
64 | VDDAYVRRMAAEATEWQKAGAPPP [SRPK2] | 4.52 ± 0.26 | 4.63 ± 0.16
65 | FGKKEKGRLIQLSRDGATGHVLLT [PPFIA4] | 2.71 ± 0.36 | 2.78 ± 0.2
66 | RYTQGTGGDEVDDSVSVNDIDLSL [ZC3H15] | 5.27 ± 0.29 | 4.89 ± 0.13
67 | AGIELIIEDDIRPEKQKRKPGLRR [MYBL2] | 3.63 ± 0.24 | 4.26 ± 0.43
68 | KNGLPSPERSYVFNGDFVDRGKDS [PPEF2] | 4.7 ± 0.079 | 4.76 ± 0.18
69 | TGEAGEELDLRLRLAQPSSPEVLT [RTN2] | 4.9 ± 0.41 | 5.01 ± 0.29

Row | Sequence | protein stability index (treatment: DMSO) | protein stability index (treatment: MLN4924 1 uM, 8 h)
70 | RAGGWVSGEEFYMLTRRVLQLETV [PKD2L1] | 1.98 ± 0.14 | 2.5 ± 0.35
71 | KLKLVALHKQVLMGPYNPDTCPEV [ACBD3] | 2.38 ± 0.28 | 2.72 ± 0.32
72 | QLFFFHLFVGVDCFLLTAMAYDQF [OR3A1] | 3.13 ± 0.23 | 3.41 ± 0.16
73 | MLQIVVGVRDSGSPPLHANTSLHV [PCDHGC5] | 2.6 ± 0.47 | 2.91 ± 0.72
74 | FGIDVKEVDPTGHSFVLVTSLGLT [MAGEA10] | 2.43 ± 0.55 | 2.28 ± 0.59
75 | LERVRVSCTIIFLASIFQLAMWTT [TMEM175] | 3.24 ± 0.4 | 3.29 ± 0.23
76 | AHAVLGQHSHVVRYFSAWAEDDHM [WEE1] | 3.55 ± 0.43 | 3.71 ± 0.057
77 | GFSPIIGRFCGQQNPPVIKSSGRF [NETO1] | 2.42 ± 0.29 | 2.52 ± 0.75
78 | SNSLSSAEPLKEDKPVTGPRNKTE [ATF6] | 5.67 ± 0.1 | 5.59 ± 0.3
79 | SKKFKNCFQSCLCCCCYQSKSLMT [EDNRA] | 2.78 ± 0.1 | 2.84 ± 0.15
80 | SASSTGDLPKAKTRAADLLVNPLD [SRPK2] | 4.97 ± 0.29 | 4.99 ± 0.33
81 | SFQDNLHNRKKHLNGLQHLKAKKV [ZMAT5] | 3.51 ± 0.46 | 3.49 ± 0.23
82 | PQEAAGAQGRAGAPVPEPPKEEQQ [EPB41L3] | 5.2 ± 0.45 | 5.75 ± 0.26
83 | FASLRPSEPFLTPYLLGPDKNLTE [SLC19A2] | 2.59 ± 0.48 | 3.17 ± 0.62
84 | NRFRVEISFHFEVTNHNIRLFEDV [TRIM43] | 2.73 ± 0.5 | 2.84 ± 0.22
85 | SKILSSKSKAYTVVGTPCYISPEL [NEK8] | 2.82 ± 0.12 | 2.88 ± 0.37
86 | ALHHVHTHLILHRDLKTQNILLDK [NEK8] | 2.25 ± 0.19 | 2.29 ± 0.25
87 | DIELDAARGDAVCTACGSVLEDNI [BRF1] | 4.88 ± 0.15 | 5.01 ± 0.37
88 | VYTNLSSYSPASASSGGAGAAVGT [JUNB] | 3.26 ± 0.29 | 3.49 ± 0.27
89 | VAREYYSEADASHCIQQILESVNH [CAMK2D] | 3.46 ± 0.17 | 3.37 ± 0.3
90 | THICRSHNSINQSLDESVIYGPGN [SLC2A12] | 3.62 ± 0.18 | 3.74 ± 0.2
